Reference: PMC5615192 (mBio, 2017)

B1: unnamed (parent)
chain 1: EVQLQQSGAELVRPGALVKLSCKASGFNIKDYYMHWVKQRPEQGLEWIGWIDPENGKTIYDPRFRGKASITADTSSNTAYLQLSSLTSEDAAVYYCATSNYRYDRSFDYWGQGTTLTVSAKTTPPSVYPLAPGCGDTTGSSVTSGCLVKGYFPEPVTVTWNSGSLSSSVHTFPALLQSGLYTMSSSVTVPSSTWPSQTVTCSVAHPASSTTVDKKL
chain 2: DIQMTQSPSSLFASLGGKVTITCKASQDINKYIAWFQHKPGKGPRLLIHYTFTLQPGIPSRFSGSGSGRDYSFSISNLEPEDIATYYCLQYHNLYTFGGGTKLEIKRADAAPTVSIFPPSSEQLTSGGASVVCFLNNFYPKDINVKWKIDGSERQNGVLNSWTDQDSKDSTYSMSSTLTLTKDEYERHNSYTCEATHKTSTSPIVKSFNRNEC
chain 3: EATVYLPPVPVSKVVSTDEYVSRTSIYYYAGSSRLLAVGNPYFSIKSPNNNKKVLVPKVSGLQYRVFRVRLPDPNKFGFPDTSFYNPDTQRLVWACVGLEIGRGQPLGVGVSGHPYLNKFDDTETSNRYPAQPGSDNRECLSMDYKQTQLCLIGCKPPTGEHWGKGVACNNNAAATDCPPLELFNSIIEDGDMVDTGFGCMDFGTLQANKSDVPIDICNSTCKYPDYLKMASEPYGDSLFFFLRREQMFVRHFFNRAGKLGEAVPDDLYIKGSGNTAVIQSSAFFPTPSGSIVTSESQLFNKPYWLQRAQGHNNGICWGNQLFVTVVDTTRSTNMTLCTEVTKEGTYKNDNFKEYVRHVEEYDLQFVFQLCKITLTAEIMTYIHTMDSNILEDWQFGLTPPPSASLQDTYRFVTSQAITCQKTAPPKEKEDPLNKYTFWEVNLKEKFSADLDQFPLGRKFLLQSGLKAKPRLKRSAPTTRAPSTKRKKVKK
B2: unnamed (parent)
chain 1: B1 chain 3
chain 2: B1 chain 1
chain 3: B1 chain 2

Variants of: B1
Test: indirect ELISA
Settings: with partner chain of the complex shown

Row | Variant | EC50
1 | chain 3 N137A | 0.011 µg/mL
2 | chain 3 Q132A | 0.0152 µg/mL
3 | chain 3 D121A | 0.0784 µg/mL
4 | chain 3 S135A | 0.0132 µg/mL
5 | chain 3 N275A | 0.0455 µg/mL

Variants of: B2
Test: SPR (Biacore)
Settings: with partner chain of the complex shown; read off a plot

Row | Variant | Kd
6 | chain 1 N137A | 8.2 -log10, M
7 | chain 1 S135A | 8.2 -log10, M
8 | chain 1 Q132A | 7.9 -log10, M
9 | chain 1 N275A | 6.9 -log10, M
10 | chain 1 R128A | 6 -log10, M
